According to patent US20160257763A1:

These substances were tested against FcRn (assay: SPR pH 6.0, Ab captured by goat anti-human IgG, FcRn injected).
Chain of FcRn (P55899 24-297, chain 1 of 2): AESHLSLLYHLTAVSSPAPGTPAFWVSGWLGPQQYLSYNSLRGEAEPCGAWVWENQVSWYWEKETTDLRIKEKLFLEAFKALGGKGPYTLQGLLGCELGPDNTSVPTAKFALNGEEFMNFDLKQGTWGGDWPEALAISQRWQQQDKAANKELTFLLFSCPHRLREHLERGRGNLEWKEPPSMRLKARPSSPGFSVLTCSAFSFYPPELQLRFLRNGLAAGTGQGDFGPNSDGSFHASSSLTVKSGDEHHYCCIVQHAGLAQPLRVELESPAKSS
Chain of FcRn (P61769 21-119, chain 2 of 2, further chain): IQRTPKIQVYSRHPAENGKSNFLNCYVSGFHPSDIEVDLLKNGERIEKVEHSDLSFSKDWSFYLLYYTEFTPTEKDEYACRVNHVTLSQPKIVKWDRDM

Row | Substance | Kd [µM]
1 | L351Y_F405A_Y407V / T366L_K392M_T394W (antibody) | 5
2 | Y349C_T350V_F405A_Y407V / T350V_S354C_T366L_K392M_T394W (antibody) | 4.1
3 | T350V_L351Y_S400E_F405A_Y407V / T350V_T366L_N390R_K392M_T394W (antibody) | 5
4 | T350V_L351Y_F405A_Y407V / T350V_T366L_K392M_T394W (antibody) | 4.3
5 | T350V_L351Y_F405A_Y407V / T350V_T366L_K392L_T394W (antibody) | 3.9
